According to US20240383983A1 (ABL BIO, published 2024):

Tests used:
[1] = molecular target: 4-1BB on GloResponse NFκB-luc2/4-1BB Jurkat cells (UniProt Q07011 24-255, limits assumed); assay: cell-based or functional assay
[2] = molecular target: T1, Recombinant B7-H4 (Monkey) protein (Monkey); assay: SPR, antibody captured on Protein A chip, B7-H4 100 nM to 6.25 nM as analyte
T1 construct: also called monkey B7-H4
Description: (§1) In the SPR experiment, the anti-B7-H4/anti-4-1BB bispecific antibody obtained in Preparation Example 3 was captured on flow-cells 2, 3 and 4, keeping the flow-cell 1 as reference, on a Protein A Chip on which an anti-B7-H4/anti-4-1BB Bispecific antibody (B10317) has been immobilized by amine coupling. Recombinant B7-H4 (Human/Monkey) or 4-1BB (Human/Monkey) protein was flowed across the chip at concentration range from 100 nM to 6.25 nM for B7-H4 or 250 nM to 15.625 nM for 4-1BB at 30 μl/min for 60 seconds, followed by a dissociation phase of 180 seconds. Regeneration was performed with 10 mM Glycine-HCl (pH 1.5).

recombinant human B7-H4 = molecular target: T2, recombinant human B7-H4 (human, UniProt Q7Z7D3 29-258, limits assumed); assay: as above
T2 construct: also called Recombinant B7-H4 (Human)
T2 sequence (looked up): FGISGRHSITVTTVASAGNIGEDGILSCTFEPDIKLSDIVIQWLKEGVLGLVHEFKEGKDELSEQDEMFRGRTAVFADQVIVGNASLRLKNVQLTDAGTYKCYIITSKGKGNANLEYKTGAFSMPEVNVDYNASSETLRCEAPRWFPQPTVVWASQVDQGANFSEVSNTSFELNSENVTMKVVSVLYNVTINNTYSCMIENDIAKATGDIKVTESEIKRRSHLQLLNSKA
Description: as §1

[3] = molecular target: T3, Recombinant 4-1BB (Monkey) protein (Monkey); assay: SPR, antibody captured on Protein A chip, 4-1BB 250 nM to 15.625 nM as analyte
T3 construct: also called monkey 4-1BB
Description: as §1

B7-1 = molecular target: T4, B7-1; assay: ELISA on plate-coated B7-1 (100 ng/well), three-fold dilutions of B10317 from 100 nM
T4 construct: one of the 'other B7-family proteins'; Commonly known as CD80
T4 chain: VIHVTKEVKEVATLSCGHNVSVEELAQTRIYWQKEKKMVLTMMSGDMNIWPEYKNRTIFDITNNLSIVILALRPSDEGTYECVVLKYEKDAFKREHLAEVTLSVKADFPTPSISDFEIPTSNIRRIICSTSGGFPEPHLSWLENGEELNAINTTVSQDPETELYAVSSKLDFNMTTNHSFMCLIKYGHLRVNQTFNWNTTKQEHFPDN
Description: (§2) To confirm the specific binding of anti-B7-H4/anti-4-1BB bispecific antibody against B7-H4, B10317 subjected to ELISA test. Microtiter plates were coated with each protein (100 ng/well) at 4° C. overnight, then blocked with 200 μl/well PBSB (1% (w/v) BSA in PBS). Three-fold dilutions of B10317 starting from 100 nM was added to each well and incubated at 37° C. for 1 hours. The plates were washed with PBST (0.05% (v/v) Tween20 in PBS) and then incubate for 1 hours at 37° C. with 100 ul of Anti-Fc HRP (Dilution factor, 1:30000) or Anti-Fab HRP (Dilution factor, 1:20000). The plates were washed with PBST (0.05% (v/v) Tween20 in PBS) and then the plates were developed with TMB substrate and analyzed by spectrophotometer at 450-650 nm.

B7-2 = molecular target: T5, B7-2; assay: ELISA on plate-coated B7-2 (100 ng/well), three-fold dilutions of B10317 from 100 nM
T5 construct: one of the 'other B7-family proteins'; Commonly known as CD86
T5 chain: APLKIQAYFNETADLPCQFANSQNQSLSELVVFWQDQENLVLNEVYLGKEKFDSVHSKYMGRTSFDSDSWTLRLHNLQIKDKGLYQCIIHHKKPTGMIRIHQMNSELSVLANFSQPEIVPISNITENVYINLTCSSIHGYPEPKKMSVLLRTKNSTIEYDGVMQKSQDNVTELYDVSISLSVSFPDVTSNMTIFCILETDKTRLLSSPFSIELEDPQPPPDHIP
Description: as §2

B7-H2 = molecular target: T6, B7-H2; assay: ELISA on plate-coated B7-H2 (100 ng/well), three-fold dilutions of B10317 from 100 nM
T6 construct: one of the 'other B7-family proteins'; Commonly known as ICOS ligand
T6 chain: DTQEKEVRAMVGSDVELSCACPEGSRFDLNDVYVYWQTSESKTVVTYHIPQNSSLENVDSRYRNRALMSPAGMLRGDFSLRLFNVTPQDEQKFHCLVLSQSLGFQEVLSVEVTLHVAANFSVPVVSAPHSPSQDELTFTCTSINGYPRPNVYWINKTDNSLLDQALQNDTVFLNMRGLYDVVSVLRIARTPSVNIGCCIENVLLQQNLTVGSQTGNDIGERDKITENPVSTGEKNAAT
Description: as §2

B7-H6 = molecular target: T7, B7-H6; assay: ELISA on plate-coated B7-H6 (100 ng/well), three-fold dilutions of B10317 from 100 nM
T7 construct: one of the 'other B7-family proteins'; Commonly known as NCR3LG1
T7 chain: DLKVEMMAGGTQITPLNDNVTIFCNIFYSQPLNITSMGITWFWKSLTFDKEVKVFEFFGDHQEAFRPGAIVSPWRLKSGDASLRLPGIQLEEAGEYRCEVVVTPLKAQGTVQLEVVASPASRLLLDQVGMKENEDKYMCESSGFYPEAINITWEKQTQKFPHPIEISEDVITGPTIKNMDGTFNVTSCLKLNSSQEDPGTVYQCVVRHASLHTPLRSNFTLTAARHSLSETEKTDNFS
Description: as §2

[4] = molecular target: T8, human B7-H4 expressed on cells (CHOK-1 B7-H4, SK-BR3, CAMA-1, MDA-MB-468, MX-1, OVCAR-3) (human, UniProt Q7Z7D3 25-282); assay: FACS on MX-1 cells, FITC anti-human IgG detection; table under the graph prints no unit, x axis is Ab, Log[nM]
T8 construct: whole, on cells; also called B7-H4 expressed cell line; B7-H4 positive cancer cell lines
T8 sequence (looked up): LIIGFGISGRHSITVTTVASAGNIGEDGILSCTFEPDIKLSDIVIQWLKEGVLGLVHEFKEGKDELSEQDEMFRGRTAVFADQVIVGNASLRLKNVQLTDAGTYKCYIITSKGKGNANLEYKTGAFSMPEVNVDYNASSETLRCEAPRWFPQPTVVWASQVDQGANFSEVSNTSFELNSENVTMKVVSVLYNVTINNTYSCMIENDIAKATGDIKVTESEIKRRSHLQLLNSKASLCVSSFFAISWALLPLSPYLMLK
Description: (§3) To evaluate the tumor antigen binding property, B10317 bispecific antibody was analyzed for its binding to B7-H4-expressing mammalian cells by FACS. Briefly, B7-H4 positive cells (MX-1 and CAMA-1) were incubated with B10317 antibodies. After wash by FACS buffer (1% BSA in PBS), the FITC-anti-human IgG antibody was added to each well and incubated at 4° C. for 45 min. The MFI of FITC was evaluated by FACS Calibur.

[5] = molecular target: T8, human B7-H4 expressed on cells (CHOK-1 …); assay: FACS on CAMA-1 cells, FITC anti-human IgG detection; table under the graph prints no unit, x axis is Ab, Log[nM]
Description: as §3

[6] = molecular target: T9, Fc fused human B7-H4 protein (human, UniProt Q7Z7D3 29-258, limits assumed); assay: ELISA, Fc fused human B7-H4 coated at 1 µg/ml, anti-human Fab HRP
T9 construct: Coated on ELISA plates; not shown: Fc part
T9 sequence (looked up): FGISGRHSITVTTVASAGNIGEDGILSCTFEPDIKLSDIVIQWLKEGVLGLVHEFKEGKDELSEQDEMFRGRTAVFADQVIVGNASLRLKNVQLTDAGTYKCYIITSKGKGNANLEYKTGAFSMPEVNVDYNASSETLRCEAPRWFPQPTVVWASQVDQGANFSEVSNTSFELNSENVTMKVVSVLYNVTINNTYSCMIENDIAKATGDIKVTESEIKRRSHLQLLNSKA
Description: To evaluate the antigen binding activity of the humanized antibody, 16E3H3 M1 was subjected to ELISA. Briefly, ELISA plates were coated with Fc fused human B7-H4 protein at 1 μg/ml in PBS, 100 ul/well at 4° C. overnight, then blocked with 200 ul/well of 1% BSA in PBS at 37° C. Four fold dilutions of monoclonal antibody starting from 100 nM were added to each well and incubated for 1 hours at 37° C. The plates were washed with PBST (0.05% Tween 20 in PBS) and then incubated with HRP (Horse Radish Peroxidase) conjugated Anti-human Fab for 1 hr at 37° C. The plates were washed with PBST (Tween 20 0.05% in PBS) developed with TMB substrate and analyzed by spectrophotometer at OD 450 nm˜650 nm. As shown FIG. 2. 16E3H3 M1 bound to human B7-H4 with dose dependent manner.

[7] = molecular target: T8, human B7-H4 expressed on cells (CHOK-1 …); assay: FACS on CAMA-1 cells, FITC anti-human IgG1 detection; y axis 'Fold of induction'
Description: as §3, with “16E3H3 M1 clone” for “B10317 bispecific antibody”, “positive cell (MX-1, CAMA-1, SK-BR3 and OVCAR-3) or B7-H4 negative” for “positive”, “(PANC-1)” for “(MX-1 and CAMA-1)”, “M40413 antibody.” for “B10317 antibodies.”, “IgG 1” for “IgG”

[8] = molecular target: T8, human B7-H4 expressed on cells (CHOK-1 …); assay: FACS on SK-BR3 cells, FITC anti-human IgG1 detection; y axis 'Fold of induction'
Description: as §3, with “16E3H3 M1 clone” for “B10317 bispecific antibody”, “positive cell (MX-1, CAMA-1, SK-BR3 and OVCAR-3) or B7-H4 negative” for “positive”, “(PANC-1)” for “(MX-1 and CAMA-1)”, “M40413 antibody.” for “B10317 antibodies.”, “IgG 1” for “IgG”

Sequence of 4-1BB on GloResponse NFκB-luc2/4-1BB Jurkat cells (Q07011 24-255 limits assumed): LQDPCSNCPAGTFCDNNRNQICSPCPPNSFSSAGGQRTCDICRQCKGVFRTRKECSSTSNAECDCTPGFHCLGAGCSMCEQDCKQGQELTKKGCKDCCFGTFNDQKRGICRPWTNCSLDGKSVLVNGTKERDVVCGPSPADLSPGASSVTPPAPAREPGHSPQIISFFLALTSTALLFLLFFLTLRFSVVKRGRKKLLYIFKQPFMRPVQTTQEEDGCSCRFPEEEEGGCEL

B1: 16E3H3 M1 x 1A10 M12 anti-B7-H4/anti-4-1BB bispecific antibody (bispecific antibody, human IgG1, kappa, N297A)
heavy: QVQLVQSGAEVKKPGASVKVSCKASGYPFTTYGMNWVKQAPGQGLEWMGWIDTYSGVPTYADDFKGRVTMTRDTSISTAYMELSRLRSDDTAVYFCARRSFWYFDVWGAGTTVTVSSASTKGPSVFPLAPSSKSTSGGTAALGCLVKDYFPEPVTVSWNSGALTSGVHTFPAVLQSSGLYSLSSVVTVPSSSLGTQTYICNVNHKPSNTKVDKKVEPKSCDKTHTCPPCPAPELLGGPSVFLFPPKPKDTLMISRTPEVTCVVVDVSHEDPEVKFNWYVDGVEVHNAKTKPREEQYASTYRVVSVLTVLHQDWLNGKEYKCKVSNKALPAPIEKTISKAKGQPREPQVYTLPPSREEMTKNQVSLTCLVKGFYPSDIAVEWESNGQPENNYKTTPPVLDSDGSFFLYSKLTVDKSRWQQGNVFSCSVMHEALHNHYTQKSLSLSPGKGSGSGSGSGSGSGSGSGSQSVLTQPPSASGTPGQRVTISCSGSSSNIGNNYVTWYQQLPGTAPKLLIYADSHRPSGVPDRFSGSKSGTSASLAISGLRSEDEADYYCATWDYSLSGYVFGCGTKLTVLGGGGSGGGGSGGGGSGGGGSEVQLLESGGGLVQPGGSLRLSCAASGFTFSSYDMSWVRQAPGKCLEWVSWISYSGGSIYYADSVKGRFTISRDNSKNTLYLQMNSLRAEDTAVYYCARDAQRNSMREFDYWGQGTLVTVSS
light: DVVMTQSPLSLPVTLGQPASISCRSSQSLVHSNANTYLHWYLQRPGQSPRLLIYKVSNRFSGVPDRFSGSGSGTDFTLKISRVEAEDVGVYFCSQSTHVPWTFGGGTKVEIKRTVAAPSVFIFPPSDEQLKSGTASVVCLLNNFYPREAKVQWKVDNALQSGNSQESVTEQDSKDSTYSLSSTLTLSKADYEKHKVYACEVTHQGLSSPVTKSFNRGEC
notes: IgG-scFv format: anti-B7-H4 IgG1 (N297A) heavy chain, (GS)9 linker, anti-4-1BB scFv 1A10 M12 (VL-(GGGGS)4-VH) at the C-terminus; also called B10317; 16E3H3 M1×1A10M12
[1]
  EC50 (nM) [NF-kB assay], with B-CAG-hB7-H4 MC38 cells: 0.093 nM
  EC50 (nM) [NF-kB assay], with CAMA-1 cells: 0.145 nM
  EC50 (nM) [NF-kB assay], with HCC1954 cells: 0.647 nM
  EC50 (nM) [NF-kB assay], with MDA-MB-468 cells: 0.403 nM
  EC50 (nM) [NF-kB assay], with MX-1 cells: 0.184 nM
  EC50 (nM) [NF-kB assay], with OVCAR3 cells: 0.288 nM
  EC50 (nM) [NF-kB assay], with SK-BR3 cells: 0.234 nM
  Fold of Induction [NF-kB assay], with B-CAG-hB7-H4 MC38 cells: 76.1 fold
  Fold of Induction [NF-kB assay], with CAMA-1 cells: 44.3 fold
  Fold of Induction [NF-kB assay], with CHOK1 cells (B7-H4 negative): 1.49 fold
  Fold of Induction [NF-kB assay], with HCC1954 cells: 3.01 fold
  Fold of Induction [NF-kB assay], with MC38 cells (B7-H4 negative): 2.32 fold
  Fold of Induction [NF-kB assay], with MDA-MB-468 cells: 6.74 fold
  Fold of Induction [NF-kB assay], with MX-1 cells: 62.9 fold
  Fold of Induction [NF-kB assay], with OVCAR3 cells: 5.02 fold
  Fold of Induction [NF-kB assay], with PANC1 cells (B7-H4 negative): 1.11 fold
  Fold of Induction [NF-kB assay], with SK-BR3 cells: 30.8 fold
[2]
  Kd: 4.53 nM
  koff: 0.00278 s⁻¹
  kon: 614000 M⁻¹ s⁻¹
Recombinant human B7-H4
  Kd: 4.36 nM
  koff: 0.00225 s⁻¹
  kon: 517000 M⁻¹ s⁻¹
[3]
  Kd: 4.01 nM
  koff: 0.000899 s⁻¹
  kon: 224000 M⁻¹ s⁻¹
B7-1
  binding result: no binding (tested: 100 nM)
B7-2
  binding result: no binding (tested: 100 nM)
B7-H2
  binding result: no binding (tested: 100 nM)
B7-H6
  binding result: no binding (tested: 100 nM)
[4]
  EC50: 10.3 nM
[5]
  EC50: 6.46 nM

B2: 16E3H3 M1 monospecific antibody (humanized anti-B7-H4 IgG1) (antibody, V domains shown)
VH: QVQLVQSGAEVKKPGASVKVSCKASGYPFTTYGMNWVKQAPGQGLEWMGWIDTYSGVPTYADDFKGRVTMTRDTSISTAYMELSRLRSDDTAVYFCARRSFWYFDVWGAGTTVTVSS
VL: DVVMTQSPLSLPVTLGQPASISCRSSQSLVHSNANTYLHWYLQRPGQSPRLLIYKVSNRFSGVPDRFSGSGSGTDFTLKISRVEAEDVGVYFCSQSTHVPWTFGGGTKVEIKR
notes: Humanized 16E3H3 with G29A in CDR-L1 for PTM removal; also called M40413; 16E3H3 M1 clone
[6]
  EC50: 0.079 nM
[7]
  EC50 (read off the curve): ~5 nM
[8]
  EC50 (read off the curve): ~4 nM
